Measured values published in patent US20060172958A1, “Phospholipid scramblase 3” (priority 2003, published 2006).

Experiments:
[1] = target: phospholipid scramblase 3 (PLS3), human, isoform not stated (human) (UniProt Q9NRY6); test: co-immunoprecipitation with PLS3 antibody, estimated against a PKC-δ blot (not shown)
[2] = target: phospholipid scramblase 3 alpha (PLS3α) (human) (UniProt Q9NRY6); test: cell-based or functional assay
Chain of phospholipid scramblase 3 alpha (PLS3α) (human) (Q9NRY6 other isoform, or with tags, fused parts or gaps limits assumed): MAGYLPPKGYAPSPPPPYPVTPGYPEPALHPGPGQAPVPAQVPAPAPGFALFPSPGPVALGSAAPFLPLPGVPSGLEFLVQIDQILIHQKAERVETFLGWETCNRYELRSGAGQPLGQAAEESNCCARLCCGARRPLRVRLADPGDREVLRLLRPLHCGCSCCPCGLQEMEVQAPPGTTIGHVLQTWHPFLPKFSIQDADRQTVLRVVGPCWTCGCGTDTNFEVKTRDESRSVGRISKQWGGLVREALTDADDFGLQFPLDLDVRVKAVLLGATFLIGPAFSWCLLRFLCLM

Chain of phospholipid scramblase 3 (PLS3), human, isoform not stated (human) (Q9NRY6 whole entry, canonical isoform): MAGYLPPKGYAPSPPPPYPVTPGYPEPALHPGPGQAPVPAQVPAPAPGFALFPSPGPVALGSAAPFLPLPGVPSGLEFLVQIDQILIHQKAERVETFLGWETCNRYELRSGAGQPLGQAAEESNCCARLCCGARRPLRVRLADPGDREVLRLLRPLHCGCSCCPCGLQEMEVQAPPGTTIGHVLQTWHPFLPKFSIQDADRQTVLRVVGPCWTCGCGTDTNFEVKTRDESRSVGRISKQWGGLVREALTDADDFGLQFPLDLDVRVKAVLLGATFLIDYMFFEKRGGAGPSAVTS

Which percent of total cellular PKC-δ co-immunoprecipitated with PLS3 [1] does the source give for “PKC-δ (cellular, HEK293 cells) (from UniProt Q05655 1-676) (enzyme)” here?
Its percent of total cellular PKC-δ co-immunoprecipitated with PLS3 is 5 to 10%.

Which results are given for “Bcl-B (untagged, from pcDNA-Bcl-B or pBcl-B-IRES-EGFP) (from UniProt Q9HD36 1-204)”?
percentage of cardiolipin at the outer membrane (shoulder of the NAO curve) [2]: 50%; proportion of sub-G1 cells, or the apoptotic population (propidium iodide) [2]: 15.4%
